Results from the supplement of paper PMC9170038.

System: MS2 coat protein
Experiment: apparent KD of MS2 coat protein; designed switch direction (-1 OFF switch, 1 ON switch): 1; higher = weaker reporter binding
Procedure, shortened: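 The apparent KD reported per design is the median over clusters of curve fits to normalised cluster fluorescence. The RNA switches were transcribed on Illumina chips by stalled E. coli RNA polymerase. SNAP-549-labelled MS2 coat protein was titrated from 0.7 or 1.5 nM, doubling up to 3 µM, in Tris-HCl pH 7.5 buffer containing KCl, MgCl2, BSA, DTT, tRNA and Tween-20, with no input, 200 uM small-molecule ligand, or an oligonucleotide input.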

[1] = input ligand: microRNA oligo, concentration not stated
[2] = Eterna round: R95, input ligand: FMN 200 uM
[3] = Eterna round: R95, input ligand: microRNA oligo, concentration not stated
[4] = Eterna round: R95, input ligand: none

ACAUGAGAGUUAGGAUAUCUUGUACCUACAUGUGACAUGAGGAUCACCCAUGUGGUAAGUAUGAGGGAGAAGGGACAGAUAUGU [Equivalence 44 - Jieux - Same State NG 2] (Eterna round: R96, puzzle: Same State NG 2)
apparent KD of MS2 coat protein (input ligand: FMN 200 uM): 67.4 nM | apparent KD of MS2 coat protein [1]: 54.4 nM | apparent KD of MS2 coat protein (input ligand: none): 84.7 nM

ACAUGAGAUAGAGGAUAUGUUGUACCUACAUGUGACAUGAGGAUCACCCAUGUGGUAAGUAUGAUACAGAAGGCUAAGAUAUGU [Equivalance 60 - Jieux - Same State NG 2] (Eterna round: R96, puzzle: Same State NG 2)
apparent KD of MS2 coat protein (input ligand: FMN 200 uM): 16.5 nM | apparent KD of MS2 coat protein [1]: 19.1 nM | apparent KD of MS2 coat protein (input ligand: none): 30.1 nM

ACAUGAGAUUUAGGAUAUAUAGUACCUACAUGUGACAUGAGGAUCACCCAUGUGGUAAGUAUGACAUAGAAGGAAAAGAUAUGU [Equivalance 98 - Jieux - Same State NG 2] (Eterna round: R96, puzzle: Same State NG 2)
apparent KD of MS2 coat protein [1]: 47.9 nM

ACAUGAGGAUCACCCAUGUAUGCUCAGGAAACUGUGCAGCAUGAGGAUAUGGAUCCUAAUUGGAUCCAGAAGGCGUGAAUUAUU [Fiskers NG3ss - 25] (Eterna round: R96, puzzle: Same State NG 3)
apparent KD of MS2 coat protein (input ligand: FMN 200 uM): 507 nM | apparent KD of MS2 coat protein [1]: 692 nM | apparent KD of MS2 coat protein (input ligand: none): 2520 nM

ACAUGAGGAUCACCCAUGUCGCUGGUAUCGGAUACGUAUUACGAGGAUAUGCCGAGGAGUUCCGAGUAGAAGGUGUAAUACAUG [Eternabot solution 40] (Eterna round: R96, puzzle: Same State NG 3)
apparent KD of MS2 coat protein (input ligand: FMN 200 uM): 178 nM | apparent KD of MS2 coat protein [1]: 90.3 nM | apparent KD of MS2 coat protein (input ligand: none): 102 nM

ACAUUUAGCUCUUGCACAUGAGGAUCACCCAUGUUCGGUUCACAGGAUAUCUAGUCAAACGGGCUGGAGAAGGGUGGCAGGAGC [Islainon] (Eterna round: R96, puzzle: Same State NG 3)
apparent KD of MS2 coat protein (input ligand: FMN 200 uM): 67.9 nM | apparent KD of MS2 coat protein [1]: 200 nM | apparent KD of MS2 coat protein (input ligand: none): 289 nM

ACCCAAAGUAUAUGGGAGCAAGCUUUUUAACAUGAGGAUCACCCAUGUACUCGUCUUAUAAGCAGUCGAAAGACUGC [Sensor 100 - 4] (Eterna round: R96, puzzle: Sensor for hsa-mir-208a)
apparent KD of MS2 coat protein (input ligand: FMN 200 uM): 873 nM | apparent KD of MS2 coat protein [1]: 13.8 nM | apparent KD of MS2 coat protein (input ligand: none): 940 nM

ACCCAAAGUAUAUGGGAGCAAGCUUUUUAACAUGAGGAUCACCCAUGUACUCGUCUUAUAAGCAGUCGAAAGACUGC [Sensor 100 - 4] (puzzle: Sensor for hsa-mir-208a)
apparent KD of MS2 coat protein [2]: 612 nM | apparent KD of MS2 coat protein [3]: 12.4 nM | apparent KD of MS2 coat protein [4]: 814 nM

ACCGCGUUUCGCGCCUACAUGAGGAUCACCCAUGUUUGUAGGCAGGAUAUCGUCCGCUCUGCGGGCGAGAAGGGCUGUUGUGGU [salish99_SSNG3_R04_028] (Eterna round: R96, puzzle: Same State NG 3)
apparent KD of MS2 coat protein (input ligand: FMN 200 uM): 49.3 nM | apparent KD of MS2 coat protein [1]: 42.9 nM | apparent KD of MS2 coat protein (input ligand: none): 60.8 nM

ACGCAGCUGGGUAAGGAUAUCGGUGGUAAAACAUGAGGAUCACCCAUGUCCGAAGCUCGGACCUCCGAGAAGGUGCCCGGCUGCG [Soinraesar Omei Mod 7] (puzzle: Same State 2)
apparent KD of MS2 coat protein [3]: 6.58 nM

ACGCAGCUGGGUGAGGAUAUCGGUGGUAAAACAUGAGGAUCACCCAUGUCCGAAGCUCGGACUUCCGAGAAGGCGCCCAACUGCA [Ercelama] (puzzle: Same State 2)
apparent KD of MS2 coat protein [2]: 12.9 nM | apparent KD of MS2 coat protein [3]: 55.1 nM | apparent KD of MS2 coat protein [4]: 70.9 nM

ACGCAGCUGGGUGAGGAUAUCGGUGGUACAACAUGAGGAUCACCCAUGUCCGAAGCUCGGACCUCCGAGAAGGCGCCCGGCUGCG [Soinraesar Omei Mod 2] (puzzle: Same State 2)
apparent KD of MS2 coat protein [2]: 17.4 nM | apparent KD of MS2 coat protein [3]: 24.8 nM | apparent KD of MS2 coat protein [4]: 57.8 nM

ACUAGAAGCGGGCAAUAACACAUGAGGAUCACCCAUGUGACACAGGAUAUAACCAGAUCAGAAAGUUAGAAGGGUGAGCCCGCA [Usatbere] (Eterna round: R96, puzzle: Same State NG 3)
apparent KD of MS2 coat protein (input ligand: FMN 200 uM): 13.2 nM | apparent KD of MS2 coat protein [1]: 19.9 nM | apparent KD of MS2 coat protein (input ligand: none): 27.4 nM

AGAAAUCAACGCGCACAUGAGGAUCACCCAUGUGCUCAAGCACAGGAUAUCGGCACAAGACAGGCCGAGAAGGGUGGAGCACGA [Eternabot solution 3] (Eterna round: R96, puzzle: Same State NG 3)
apparent KD of MS2 coat protein (input ligand: FMN 200 uM): 14.7 nM | apparent KD of MS2 coat protein [1]: 19.7 nM | apparent KD of MS2 coat protein (input ligand: none): 24.1 nM

AGAGAACAUGAGGAUCACCCAUGUGAGAGGGAUGUAGGAUAUGUAAGGAAGAAAGAAGGAACAGAAGGACAAAGAG [JR_SS!_Sub066] (puzzle: Same State 1)
apparent KD of MS2 coat protein [2]: 50.5 nM | apparent KD of MS2 coat protein [3]: 78.5 nM | apparent KD of MS2 coat protein [4]: 70.7 nM

AGAGCCGGCACUGAGGAUAUUCAUAAUAAAACAUGAGGAUCACCCAUGUAGGCCAGAAGGCCUUGGGAGAAGGCAGGUCGGCUCU [Mat - Same State 2 - Mod of UCT - D69] (puzzle: Same State 2)
apparent KD of MS2 coat protein [2]: 17.7 nM | apparent KD of MS2 coat protein [3]: 168 nM | apparent KD of MS2 coat protein [4]: 220 nM

AGAGGAGGAGCAGGAUAUUCGAAGAAGGACGUGGAAGAAGGGUUCAUGCGAUGACAUGAGGAUCACCCAUGUACCGCGCGAUGA [AK SSNG1-V2-13] (Eterna round: R96, puzzle: Same State NG 1)
apparent KD of MS2 coat protein (input ligand: FMN 200 uM): 145 nM | apparent KD of MS2 coat protein [1]: 115 nM | apparent KD of MS2 coat protein (input ligand: none): 130 nM

AGAGGAGGAGCAGGAUAUUCGAAGAAGGACGUGGAAGAAGGGUUCAUGCGAUGACAUGAGGAUCACCCAUGUACCGCGCGUUGA [AK SSNG1-V2-14] (Eterna round: R96, puzzle: Same State NG 1)
apparent KD of MS2 coat protein (input ligand: FMN 200 uM): 185 nM | apparent KD of MS2 coat protein [1]: 78.6 nM | apparent KD of MS2 coat protein (input ligand: none): 156 nM

AGAGGAGGCGCAGGAUAUACGACGGAGGACGAGGUAGAAGGGUGCAUGCGAUAACAUGAGGAUCACCCAUGUACCGCGCGACGA [AK SSNG1-V2-17.1] (Eterna round: R96, puzzle: Same State NG 1)
apparent KD of MS2 coat protein (input ligand: FMN 200 uM): 122 nM | apparent KD of MS2 coat protein [1]: 24.9 nM | apparent KD of MS2 coat protein (input ligand: none): 45.6 nM

AGAGGAGGCGCAGGAUAUACGACGGAGGACGUGGUAGAAGGGUGCAUGCGAAAACAUGAGGAUCACCCAUGUACCGCGCGACGA [ssng1 c] (Eterna round: R96, puzzle: Same State NG 1)
apparent KD of MS2 coat protein (input ligand: FMN 200 uM): 816 nM | apparent KD of MS2 coat protein [1]: 30.1 nM | apparent KD of MS2 coat protein (input ligand: none): 126 nM

AGAGUGUAUCCACAGGAUAUGCGAGCUGACACAUGAGGAUCACCCAUGUAGUCCUAAAGGGCCAAGCAGAAGGGUGGUAAAGCUC [Oneson] (puzzle: Same State 2)
apparent KD of MS2 coat protein [2]: 17.5 nM | apparent KD of MS2 coat protein [3]: 28.9 nM | apparent KD of MS2 coat protein [4]: 33.9 nM

AGAUCAUGACGAGGAUAUGGUACAUGAGGAUCACCCAUGUAUGUACCACGACGCGUACGUCGAAUCCAGAAGGCGUCGUGAUCA [Mat - Same State NG 2 - JL mod - D16] (Eterna round: R96, puzzle: Same State NG 2)
apparent KD of MS2 coat protein (input ligand: FMN 200 uM): 19 nM | apparent KD of MS2 coat protein [1]: 66.1 nM | apparent KD of MS2 coat protein (input ligand: none): 99.3 nM

AGAUCAUGACGAGGAUAUGGUACAUGAGGAUCACCCAUGUAUGUAUCAUAACGCGAAUGACGAAACCAGAAGGCGUCGUGGUCA [JL SSNG2 1.11] (Eterna round: R96, puzzle: Same State NG 2)
apparent KD of MS2 coat protein (input ligand: FMN 200 uM): 10.2 nM | apparent KD of MS2 coat protein [1]: 14.6 nM | apparent KD of MS2 coat protein (input ligand: none): 14.9 nM

AGAUCUCCUCUAGGAUAUCCCUAACAUGAGGAUCACCCAUGUCCGAAUUGCAGACAUAGGCCGAGGGAGAAGGAGAAACCGUCG [Eternabot solution 41] (Eterna round: R96, puzzle: Same State NG 2)
apparent KD of MS2 coat protein (input ligand: FMN 200 uM): 742 nM | apparent KD of MS2 coat protein [1]: 576 nM | apparent KD of MS2 coat protein (input ligand: none): 856 nM

AGAUGUUAAUCAGGAUAUGGGCACAUGAGGAUCACCCAUGUAAAUUCGAUACUAUGUGGUCACGUCUAGAAGGGAUGGCUAACA [SameState NG2 #82] (Eterna round: R96, puzzle: Same State NG 2)
apparent KD of MS2 coat protein (input ligand: FMN 200 uM): 189 nM | apparent KD of MS2 coat protein [1]: 158 nM | apparent KD of MS2 coat protein (input ligand: none): 250 nM

AGCCGAGACACAGGAUAUACAUGUAUACAUGAGGAUCACCCAUGUAGCAACACGUGGUAGUGAUUGUAGAAGGGUGCUCGGCGC [Omei SS(NG)2 Cv13] (Eterna round: R96, puzzle: Same State NG 2)
apparent KD of MS2 coat protein (input ligand: FMN 200 uM): 20.4 nM | apparent KD of MS2 coat protein [1]: 32 nM | apparent KD of MS2 coat protein (input ligand: none): 36.8 nM

AGCCGAGACUGAGGAUAUUUGUAUCUACAUGAGGAUCACCCAUGUAGCGUCACGUGGUAGUGAUCGAAGAAGGCAGCUCGGCGC [MOD3 of Omei's SS(NG)2 Cv2] (Eterna round: R96, puzzle: Same State NG 2)
apparent KD of MS2 coat protein (input ligand: FMN 200 uM): 11.1 nM | apparent KD of MS2 coat protein [1]: 11.2 nM | apparent KD of MS2 coat protein (input ligand: none): 21.9 nM
